Measured values published in PMC3257359 (Cell research, 2011).
No end group written: not given here. *: point of attachment. Biotin = O=C1N[C@H]2[C@H](CS[C@H]2CCCCC(=O)*)N1

T1: human PPARγ LBD (residues 206-477) (human, UniProt P37231-2 206-477)
T1 sequence: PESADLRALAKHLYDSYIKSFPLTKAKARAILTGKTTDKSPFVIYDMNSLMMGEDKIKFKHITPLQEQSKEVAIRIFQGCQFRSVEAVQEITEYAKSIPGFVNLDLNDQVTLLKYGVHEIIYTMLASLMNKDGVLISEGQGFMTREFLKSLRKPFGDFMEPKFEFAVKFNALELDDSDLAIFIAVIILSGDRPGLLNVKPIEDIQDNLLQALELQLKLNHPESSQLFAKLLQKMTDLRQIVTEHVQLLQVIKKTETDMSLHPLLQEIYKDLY

B1: SRC1-2 peptide (coactivator LXXLL motif of steroid receptor coactivator 1), N-terminally biotinylated (peptide)
peptide: Biotin-SPSSHSSLTERHKILHRLLQEGSP
B2: SRC1-4 peptide (coactivator LXXLL motif of steroid receptor coactivator 1), N-terminally biotinylated (peptide)
peptide: Biotin-QKPTSGPQTPQAQQKSLLQQLLTE
B3: SRC2-3 peptide (coactivator LXXLL motif of steroid receptor coactivator 2), N-terminally biotinylated (peptide)
peptide: Biotin-QEPVSPKKKENALLRYLLDKDDTKD
B4: CBP-1 peptide (coactivator LXXLL motif of CBP), N-terminally biotinylated (peptide)
peptide: Biotin-SGNLVPDAASKHKQLSELLRGGSG

The binders below were run against T1, human PPARγ LBD (residues 206-477) (assay: AlphaScreen or HTRF).
B1: binds.
B2: binds.
B3: binds.
B4: binds.
